From paper PMC7105311, “Structure and function of Bs164 β-mannosidase from Bacteroides salyersiae the founding member of glycoside hydrolase family GH164” (The Journal of Biological Chemistry, 2019) come the findings set out here.

Substrate in data set [1]: Cc1cc(=O)oc2cc(O[C@@H]3O[C@H](CO)[C@@H](O)[C@H](O)[C@@H]3O)ccc12
The experiment in a line: purified protein. Type of data set: biochemical, Bacteroides salyersiae. The note with it: 80 mM MES pH 5.5, 160 mM NaCl, 25 °C.

Substrate in data set [2]: O=[N+]([O-])c1ccc(O[C@@H]2O[C@H](CO)[C@@H](O)[C@H](O)[C@@H]2O)cc1
The experiment in a line: stopped assay, p-nitrophenol absorbance. It is filed as biochemical, Bacteroides salyersiae. Conditions: 80 mM MES pH 5.5, 160 mM NaCl, 25 °C. From the text:
stopped assay, p-nitrophenol absorbance on Bs164

B1: Bs164 (Bacteroides salyersiae CL02T12C01) (protein)
chain: ERISKQSTPFVGAQIFIEPGQTQEQIEQWFKLLAESNMTTCRIRMFGKYMKTPSGTYDFTLFDRAFKLADKYHIKVYATLFPDTEFTDVGGFKFPHSREHQKEVEDYIKNVVSHFSQYKNLAAWVLINEPGTPNLPFNEPFTKERFSDWKKEHNFSEYNEKGYPVLNFEKENFIIDYHNWYLNWLANQVRLYDKQHDLHVNPHNVFKLSGLYDFPTWRTFLNSLGGSAHASWHFGYFPRKAYTVAMSANAELIRSGAGELPWLMTELQGGNNLYSGANPLCPTAEEIIQWLWINFATEAKGGIFWSFNARSTAAEAGEWAMINFKNKSSDRLIAAATIGKFITENVKMMSNIKTLNSGISILYNHESMWVEAAQTRGKLNGNGRSIGAVMCSPLSYFEALSETGLQANFKEIKEFDFSLNDYTDQVIILSHQIALDNKVIKQLESFVEKGGTLIADGLTGYYDYQAHSTVVSGFALENLFGSYPIEYKIKENLFSLDFEKDNYKLPAHLWKGTIETSKATPIMDKEGECIACINQYGKGKVFWIPSPIALGARESKDFSELSKLTVSLLPNKILNDNPHFDKHYKDVMMKSFKSNGTMYSLIINKSASVQTVDIVGGKGKAFILFANKNAHSTANKLTISPEETVIIKWKNN
notes: tag cut by 3C protease for kinetics, His6-tagged for crystals
Usually Km stands for the concentration of substrate that gives half-maximal velocity. In general, kcat refers to the maximal rate divided by the concentration of active sites. A word on the kcat/Km: it is the second-order rate constant that governs catalysis at low substrate concentration. With B1, in data set [1], the Michaelis constant (Km) was 1050 ± 80 µM, the kcat stood at 1.8 ± 0.05 s⁻¹ and the kcat/Km was determined as 1700 ± 100 M⁻¹ s⁻¹. Besides, in data set [2], the Km is 3600 ± 800 µM, the turnover number (kcat) was found to be 40 ± 3 s⁻¹ and the kcat/Km was determined as 11000 ± 3000 M⁻¹ s⁻¹.
